Where no end group is shown, it is not given here.
Experiments:
006 PSMA Fab [1] = biological target: T1, 006 PSMA Fab (biotinylated (site not stated)); test: clonal phage ELISA, biotinylated PSMA Fab on neutravidin plate, anti-M13 HRP detection; competitor PSMA antigen
T1 construct: Biotinylated PSMA Fab captured on neutravidin coated plates in the clonal phage ELISA; also called Anti-PSMA Fab; anti-PSMA Fab

006 PSMA Fab [2] = biological target: T1, 006 PSMA Fab; test: clonal phage ELISA, biotinylated PSMA Fab on neutravidin plate, anti-M13 HRP detection, no PSMA antigen
Protocol: (§1) Clonal phage were harvested as crude supernatants and screened via standard ELISAs. […] Prior to the addition of clonal phage. wells were incubated with blocking buffer and PSMA antigen or blocking buffer alone. Without washing or aspirating, clonal phage supernatants were then added to the wells and incubated for a short time. Wells were then washed followed by detection of bound phage using a horse radish conjugated anti-M13 antibody.

006 PSMA Fab [3] = biological target: T2, 006 PSMA Fab; test: clonal phage ELISA on captured PSMA Fab pre-incubated with PSMA antigen as competitor, anti-M13 HRP detection;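 also: crude clonal phage supernatants tested by ELISA, wells first treated with blocking buffer plus PSMA antigen, bound phage read out via HRP-linked anti-M13 antibody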
T2 construct: In the panning ELISA the PSMA Fab was biotinylated and captured on neutravidin coated plates; also called Anti-PSMA Fab; anti-PSMA Fab
Protocol: as §1

006 PSMA Fab [4] = biological target: T2, 006 PSMA Fab; test: clonal phage ELISA on biotinylated PSMA Fab captured on neutravidin plates, anti-M13 HRP detection;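 also: crude clonal phage supernatants tested, before phage were added, wells were pretreated with PSMA antigen in blocking buffer or with blocking buffer only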
Protocol: as §1

PSMA Fab (006 PSMA Fab) [5] = biological target: T3, PSMA Fab (006 PSMA Fab); test: clonal phage ELISA; biotinylated PSMA Fab on neutravidin plate, blocking buffer alone; anti-M13 HRP detection;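 also: crude clonal phage supernatants added without washing to wells pretreated with blocking buffer with or without PSMA antigen, short incubation, then washed before detecting bound phage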
T3 construct: also called Anti-PSMA Fab; anti-PSMA Fab
Protocol: as §1

PSMA Fab (006 PSMA Fab) [6] = biological target: T3, PSMA Fab (006 PSMA Fab); test: clonal phage ELISA; biotinylated PSMA Fab on neutravidin plate pre-incubated with PSMA antigen as competitor; anti-M13 HRP detection;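 also: crude clonal phage supernatants briefly incubated on wells preloaded with PSMA antigen in blocking buffer, or buffer only as control, bound phage detected with HRP-conjugated anti-M13 antibody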
Protocol: as §1

Row | Binder | phage binding ELISA signal with PSMA antigen present (006 PSMA Fab [1]) | phage binding ELISA signal (006 PSMA Fab [2]) | further results
1 | LESMCIPPWMCSGL [Phage-3118] | 0.109 | 2.07 | –
2 | APVFCKPAWMCPWL [Phage-3121] | 0.0695 | 2.07 | –
3 | DYHYCEPAWMCFGF [Phage-3119] | 0.0726 | 2.07 | –
4 | MERMCRPAWMCTAF [Phage-3097] | – | – | Phage binding ELISA signal, Anti-PSMA Fab in the presence of PSMA antigen (006 PSMA Fab [3]): 0.107; Phage binding ELISA signal, Anti-PSMA Fab (006 PSMA Fab [4]): 2.09
5 | GHQMCVPQWMCDAF (cysteine pairing not given here; also: fused to phage pIII, orientation and linker not given here) [Phage-3129] | – | – | Phage binding ELISA signal, Anti-PSMA Fab (PSMA Fab (006 PSMA Fab) [5]): 2.06; Phage binding ELISA signal, Anti-PSMA Fab in presence of PSMA (PSMA Fab (006 PSMA Fab) [6]): 0.0607
6 | SVGYCVPSWMCSGF (cysteine pairing not given here; also: fused to phage pIII, orientation and linker not given here) [Phage-3130] | – | – | Phage binding ELISA signal, Anti-PSMA Fab (PSMA Fab (006 PSMA Fab) [5]): 2.06; Phage binding ELISA signal, Anti-PSMA Fab in presence of PSMA (PSMA Fab (006 PSMA Fab) [6]): 0.075
7 | THIICKPAWMCDAW (cysteine pairing not given here; also: fused to phage pIII, orientation and linker not given here) [Phage-3132] | – | – | Phage binding ELISA signal, Anti-PSMA Fab (PSMA Fab (006 PSMA Fab) [5]): 2.06; Phage binding ELISA signal, Anti-PSMA Fab in presence of PSMA (PSMA Fab (006 PSMA Fab) [6]): 0.0691
8 | ILPQCVPAWMCSGF [Phage-3101] | – | – | Phage binding ELISA signal, Anti-PSMA Fab in the presence of PSMA antigen (006 PSMA Fab [3]): 0.0784; Phage binding ELISA signal, Anti-PSMA Fab (006 PSMA Fab [4]): 2.09
9 | VNVKCVPSWMCSGF (cysteine pairing not given here; also: fused to phage pIII, orientation and linker not given here) [Phage-3125] | 0.0739 | 2.07 | –
10 | SGALCVPLWMCTGF [Phage-3117] | 0.0979 | 2.07 | –
11 | SMHWCEPMWMCAGF (cysteine pairing not given here; also: fused to phage pIII, orientation and linker not given here) [Phage-3124] | 0.0809 | 2.07 | –
12 | LDKRCVPVWMCEGF (cysteine pairing not given here; also: fused to phage pIII, orientation and linker not given here) [Phage-3127] | 0.0828 | 2.06 | –
13 | LELACKPEWMCVGF (cysteine pairing not given here; also: fused to phage pIII, orientation and linker not given here) [Phage-3128] | 0.0801 | 2.06 | –
14 | NEPWCVPAWMCTGF [Phage-3120] | 0.0834 | 2.07 | –
15 | DAVRCVPSWMCEGF (cysteine pairing not given here; also: fused to phage pIII, orientation and linker not given here) [Phage-3131] | – | – | Phage binding ELISA signal, Anti-PSMA Fab (PSMA Fab (006 PSMA Fab) [5]): 2.06; Phage binding ELISA signal, Anti-PSMA Fab in presence of PSMA (PSMA Fab (006 PSMA Fab) [6]): 0.1
16 | FHIMCQPEWMCLGF [Phage-3116] | 0.129 | 2.08 | –
17 | FEILCRPLWMCSGF (cysteine pairing not given here; also: fused to phage pIII, orientation and linker not given here) [Phage-3126] | 0.111 | 2.06 | –
18 | MGPVCKPAWMCLEF [Phage-3099] | – | – | Phage binding ELISA signal, Anti-PSMA Fab in the presence of PSMA antigen (006 PSMA Fab [3]): 0.109; Phage binding ELISA signal, Anti-PSMA Fab (006 PSMA Fab [4]): 2.09
19 | QGRVCEPSWMCTGF [Phage-3096] | – | – | Phage binding ELISA signal, Anti-PSMA Fab in the presence of PSMA antigen (006 PSMA Fab [3]): 0.0561; Phage binding ELISA signal, Anti-PSMA Fab (006 PSMA Fab [4]): 2.09
20 | GYPLCIPEWMCAGF (cysteine pairing not given here; also: fused to phage pIII, orientation and linker not given here) [Phage-3123] | 0.0968 | 2.07 | –
21 | EHILCRPVWMCEGF [Phage-3098] | – | – | Phage binding ELISA signal, Anti-PSMA Fab in the presence of PSMA antigen (006 PSMA Fab [3]): 0.101; Phage binding ELISA signal, Anti-PSMA Fab (006 PSMA Fab [4]): 2.09
22 | PMPVCVPMWMCYGF [Phage-3100] | – | – | Phage binding ELISA signal, Anti-PSMA Fab in the presence of PSMA antigen (006 PSMA Fab [3]): 0.0842; Phage binding ELISA signal, Anti-PSMA Fab (006 PSMA Fab [4]): 2.09
23 | EFPLCVPAWMCSGF [Phage-3115] | 0.0859 | 2.08 | –
24 | YDFRCIPSWMCMGI [Phage-3095] | – | – | Phage binding ELISA signal, Anti-PSMA Fab in the presence of PSMA antigen (006 PSMA Fab [3]): 0.0693; Phage binding ELISA signal, Anti-PSMA Fab (006 PSMA Fab [4]): 2.1
25 | GMIQCRPAWMCAGL (cysteine pairing not given here; also: fused to phage pIII, orientation and linker not given here) [Phage-3122] | 0.0928 | 2.07 | –
